In US20130129714A1 (UAB RESEARCH FOUNDATION, published 2013):
Values belong to the binder of their own block, whether it stands above or below them. Bridges are numbered along the chain shown (N, C = ends). Where no end group is shown, it is not given here.

Key:
[1] = biological target: T1, human Tamm-Horsfall protein (human, UniProt P07911 25-587); assay: competitive ELISA; light chains bound in the wells, Tamm-Horsfall protein in solution, cyclized peptide as inhibitor
From the text: (§1) Peptides known to react with the Tamm-Horsfall protein in the yeast two-hybrid assay were synthesized, cyclized, and used as inhibitors in a competitive ELISA experiment. The peptides were cyclized by adding cysteine residues to the amino and carboxyl-terminal portions of the peptides and generating an intramolecular disulfide bridge (FIG. 4). Cyclization facilitates formation of the loop structure in solution. Both the linear and cyclized peptides inhibited the binding of the Tamm-Horsfall protein to the immunoglobulin light chains bound in the wells of the microtiter plate, but the efficiency of inhibition was increased by cyclization of the peptide inhibitor.

[2] = biological target: T1, human Tamm-Horsfall protein; assay: competitive ELISA (FIG. 7)
From the text: Mutation of the CDR3 sequence to disrupt the loop structure by substituting amino acid residues with phenyalanine confirmed that the secondary structure was an important determinant of binding (FIG. 6). The inhibitory capability of cyclized experimental ([…] (SEQ ID NO:32)) and control ([…] (SEQ ID NO:33)) peptides were then compared in a competitive ELISA assay. The experimental peptide served as a very efficient inhibitor of the binding interactions between the human Tamm-Horsfall protein and six different human immunoglobulin light chains (FIG. 7).

[3] = biological target: T1, human Tamm-Horsfall protein; assay: competition studies for binding to Tamm-Horsfall protein
[4] = biological target: T1, human Tamm-Horsfall protein; assay: competitive ELISA; light chains bound in the wells, Tamm-Horsfall protein in solution, linear peptide as inhibitor
From the text: as §1

IC50 [1]: 24 nM
B1: peptide 2 (LSADSSGSYLYVF (SEQ ID NO:2)), cyclized (peptide)
peptide: CLSADSSGSYLYVFC
modifications: disulfide 1-15
notes: Built from the words 'cyclized by adding cysteine residues to the amino and carboxyl-terminal portions of the peptides'; also called cyclized peptide 2

binding result [2]: binds
B2: cyclized peptide (CLSADSSGSYLYVC) (SEQ ID NO:32) (peptide)
peptide: CLSADSSGSYLYVC
modifications: disulfide 1-14
notes: also called cyclized experimental peptide; experimental peptide

binding result [3]: binds
Binder: MQGTHWPPLT (also called SSH23 CDR3 peptide) [synthetic peptide (MQGTHWPPLT (SEQ ID NO:3)) identical to the CDR3 region of SSH23]

IC50 [4]: 55 nM
Binder: QSYDNTLSGSYVF (also called uncyclized peptide 1) [peptide 1 (QSYDNTLSGSYVF (SEQ ID NO:1)), linear]

IC50 [4]: 90.9 nM
Binder: LSADSSGSYLYVF (also called uncyclized peptide 2) [peptide 2 (LSADSSGSYLYVF (SEQ ID NO:2)), linear]
